Source: the RNAGym collection of RNA variant scans (doi:10.1073/pnas.2313332121)

B1: TPR t1 (parent)
chain: GACCAAUCUGCCCUCAGAGCUCGAGAACAUCUUCGGAUGCAGAGGAGGCAGGCUUCGGUGGCGCGAUAGCGCCAACGUCCUCAACCUCCAAUGCAUCCCACCACAUGAUGAUGCCUGAAGAGCCUUGGUUUUUUG

Variants of: B1
Assay: polymerase ribozyme fitness, log enrichment relative to wild type (log ratio); higher = more active; in vitro selection for triplet polymerase activity
In short: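 Mutant libraries of both subunits of a heterodimeric triplet polymerase ribozyme were PCR-built, transcribed, and selected once in triplicate, with frozen incubation at −7 °C and capture of gel-excised extended constructs on streptavidin beads before RT-PCR. Illumina sequencing of input and output libraries was filtered to genotypes with ≥10 input reads and ≥1 read per output. Fitness is the logarithm of genotype enrichment over wild-type enrichment, using inverse-variance-weighted replicate averages. The logarithm is base 2.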

Variant	polymerase ribozyme fitness (log ratio)
A6U C12A A103U	-4.89
U7G G17U G61U	-0.326
A6U C22A C40A G61U	-5.59
A6U C62U U112G C115A U131C G135C	-1.02
U7G C12A C97U G117C	-3.54
C8A C64U U78A C94G A100U C102A U112A G128A U129A G135C	-4.75
A6U C53U U54G G93U U106A U129A	-2.14
U7G C20A G39A C49G G61C A121G	-3.89
U7G C97G	-3.9
U7C C73A	-0.286
A6U U92A G117U	-5.86
A6U C22A	-4.95
A6U G44U G52C G69A A121C	-4.22
A6U G117A	-0.258
C8A C20A C79A	-3.7
U7G C40U C72A C86U G93U C102A U106A	-5.6
C8A A75U C85A A90C G93A	-3.24
A6U G69A C115U G120C	-5.82
C8A A37C C101G	-1.22
U7G C56A A84G U133G G135U	-0.824
U7G G35U G57U U87A A121G	-3.9
U7C U106C	-0.478
A6U C13G G52A A111C U116G A121C	-1.83
U7G C53G C115U U116G	-0.555

Variant	polymerase ribozyme fitness (log ratio)
U7A C13A	-0.751
C8A A43C G44A C53A C86U G93U	-2.53
U7G C28U G48A G61A	-1.28
A6U C72A A84U U132C	-0.139
U7C C13A C28G G69U A100U	-2.4
U7A C40G	-0.25
U7A C40U	0.348
A6U C56U	0.177
A6U C28U C123U	-0.417
U7C C8U C34G	-6.08
U7G C70A C72U G93C C115U	-4.07
U7C C13U C15A G45A C72A	-0.674
U7G G71C A111G C115U G120U	-4.01
U7C G19U U54C A66C	-5.92
U7G A37C A95C	0.483
A6U C11U A46C G51C G57U A121C	-2.71
A6U C15G A43U C115U U116G G120A G122A	-3.93
U7G C40U	0.849
U7A G69U C88G G122A	-1.88
C8A C20A U126A	-3.84
C8A A43C G57A C72G U96C A103G A108G U109G	-5.5
A6U U9C G60C	-0.604
U7A C11A G77A U81G	-1.65
U7A C15A A41C C70U	-2.92

Variant	polymerase ribozyme fitness (log ratio)
U7A C13U G19C G113U	-1.96
C8A C13U U38A C97A	-6.04
U7A C53U C86U A90G G122A	-1.97
U7C A16U C34A C49G	-4.01
U7A C49U C53U U59A C76A	-0.656
U7A C15A C62U C64U G93U	-1.99
A6U C11G G69U U125G	-1.05
U7C G93A U132C	-0.396
A6U G45U G52C G69C C72U G122A	-3.45
U7G C13G	0.14
U7C C34G G69C G120A	-6.41
U7A C8A C11G G47U G57U C62U C85A	-1.82
U7G C79U C124G	2.41
A6U U87C U96G G120A G122C	0.592
A6U G10C G61A C89A U125A	-2.03
A6U C62A A105C	-4
U7G G45A U59G U129A	-1.45
U7G U129A	-0.778
A6U C115G	-1.25
U7A A103U	-4.28
U7C C8A G48U G63U G120U C123U	-0.338
A6U C53G C124U U129A	-0.73
C8A A29U G69U	-0.0842
U7C G48U A50G C89U	-1.26

Variant	polymerase ribozyme fitness (log ratio)
C8A A37G A100C	-0.161
U7G G107A	-4.15
U7G G17A G39A U55A C82G C115A U130C	-2.79
U7A A46U A50U G60A G69U U96C	-1.72
A6U U38A G63C C79U A84G C89U	-3.61
U7A C79G C88G U112A	-1.87
U7G U21C G47U C56U	-1.15
A6U G52C C56U C80G A121G	-1.97
U7A A41G U92A	-1.89
C8A C22G C31U G36C G61C	-6.63
A6U C53G C99U	-4.03
U7C C31U G61C G71U C72G G120U	-5.19
U7C G58C A91C	-1.02
A6U C49A C62U	-1.33
U7A G44A A68G	-5.14
U7G G42A U81A U109A U130C	-5.79
U7G A83U U87A A95U C124A	0.494
U7A C73G	-1.63
U7C C13A G93A C102A A103U A121C	-4.79
U7A C20U C73U G120A U129C U131G	-0.869
U7G C70U G93C	-0.518
U7A G48C A74U G113A U130C U133G	-1.3
U7G U32G C98A	-5.15
A6U U54A C62U	0.317

Variant	polymerase ribozyme fitness (log ratio)
A6U C101A	-0.91
A6U C12U G48A C56A G65U A95U C97G C101A U112G C114U	-7.26
U7C G39A C115U G128C	-3.58
U7A G48U C94A C97U	-2.33
U7G A29C C72A C82A G120C	-0.586
C8A C56G	0.28
C8A A46G C101U	-0.289
U7A G113U	-2.15
U7G C79U C80U	-1.81
U7C A100U	-0.808
U7G C102A	-0.8
U7C U14G A37C	-1.12
U7G A16U A43U C49U C70A C89A U116G	-4.88
U7G A46U G61C U112A	-1.98
A6U G60A C97G A111G U125A G135A	-6.23
C8A A37G C62G C72G U112G G127A	-5.98
C8A C28G G61A	-2.22
A6U U54C	0.558
A6U U106A U116A	-2.08
U7C A37U G60A	-0.133
U7C C8A C62A	-0.194
A6U G60U C115A G117U	-4.41
U7C G48U A50G G61A C89U	-1.71
U7G G69C C86U	-1.06

Variant	polymerase ribozyme fitness (log ratio)
U7G C94G	-0.426
U7A C53U	-0.0186
A6U C72U U96C	-0.187
A6U C22A A43C C79G C97U	-8.2
U7G G52U C64U C123G	1.52
U7A U87A C89G	-1.86
C8A C13U G36C	-0.24
C8A C22G G113U C114G	-3.52
U7G C49U C56U U78C C94U A111C	-0.959
U7A A27C C49U U55G	-4.4
A6U C64U U92G	-3.05
U7G C56A G57U C89A	-0.967
C8A A16G A43C	-1.35
A6U C40G A50U	-1.66
U7A C11A C40U G93C A119U G122U	0.441
U7A U106A C124A	1.98
A6U C97G	-3.24
U7G A46U G63C C102A C104A A111U G128C	-7.59
U7G C12G G17U U21G G69U C86U C124A	-6.15
A6U C13U C62U U132A	-0.793
C8A C64G A111G A121C U129A	-6.98
U7A C12A C28G G58A U87G G120U	-1.72
U7G A103C G120A	-2.83
U7G G77C	0.424

Variant	polymerase ribozyme fitness (log ratio)
U7A C11A A26U G63A U112A G127U	-3.63
A6U G69A	-2.02
U7A C56A A121G	1.68
A6U C49G G122A	-0.638
A6U C72A C102A C123G	0.361
U7A C73A C82G	-0.0183
U7C G42U G47A	-1.32
A6U G71C G120C C123G	-0.502
C8A C12G G61C C123A	-0.379
U7A C70A G113C	-4.53
A6U C12G G45C A74U C94U	-0.942
U7C G10A C11G A91U A111G	-1.99
U7G U21A U55G A121C	1.32
U7G G61U C70G	-5.24
U7C G19U U54C C72G	-3.1
U7A U55A U116C	-0.198
A6U U96C	-0.215
A6U G60C G120U	0.248
A6U C13U G39C	-0.104
A6U G19U	-2.29
U7G C56G C86G U96G	-2.15
U7A A37G G52A C56G G120U	-0.68
C8A A29G C115U U126G	-2.36
